Laboratory results: paper PMC3360035

Molecular target: Human γD-crystallin V75D (human)
Sequence (P07320 2-174 V76D): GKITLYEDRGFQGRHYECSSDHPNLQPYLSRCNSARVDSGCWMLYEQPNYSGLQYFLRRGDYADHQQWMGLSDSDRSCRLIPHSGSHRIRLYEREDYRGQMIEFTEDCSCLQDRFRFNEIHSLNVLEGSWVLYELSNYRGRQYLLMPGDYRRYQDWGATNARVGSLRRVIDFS

B1: αB-crystallin, wild type (natural protein)
chain: MDIAIHHPWIRRPFFPFHSPSRLFDQFFGEHLLESDLFPTSTSLSPFYLRPPSFLRAPSWFDTGLSEMRLEKDRFSVNLDVKHFSPEELKVKVLGDVIEVHGKHEERQDEHGFISREFHRKYRIPADVDPLTITSSLSSDGVLTVNGPRKQVSGPERTIPITREEKPAVTAAPKK
suppression of aggregation on dilution out of 5 M GdnHCl (from maximum A350), αB in 5-fold molar excess: 73%
